Assay results reported in the supplement of paper PMC9112550, “Optimization of the antimicrobial peptide Bac7 by deep mutational scanning” (BMC Biology, 2022).

test system: Escherichia coli TOP10; experiment: shrunken log2 fold change of peptide-encoding DNA abundance (4.5 h post-induction vs induction); higher = less antimicrobial activity (less host growth inhibition); settings: time post-induction: 4.5 h; library: site-saturation at positions 5, 18, 19, 20
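Further: peptides expressed intracellularly from a pBAD plasmid library in pooled LB shake-flask culture, induced with 0.3% L-arabinose, DNA abundance read by NGS, three biological replicates, DESeq2 with apeglm shrinkage.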

Sequence | shrunken log2 fold change
RRIRSRPPRLPRPRPRPQGRPRP | -0.0801
RRIRMRPPRLPRPRPRPDRVPRP | 0.0719
RRIRLRPPRLPRPRPRPVSVPRP | -0.118
RRIRKRPPRLPRPRPRPRQAPRP | 1.79
RRIRKRPPRLPRPRPRPQIQPRP | 0.0528
RRIRWRPPRLPRPRPRPTQFPRP | 0.0858
RRIRDRPPRLPRPRPRPSMLPRP | -0.244
RRIRLRPPRLPRPRPRPKSKPRP | -0.071
RRIRFRPPRLPRPRPRPQRGPRP | 0.353
RRIRARPPRLPRPRPRPTPRPRP | 1.5
RRIRDRPPRLPRPRPRPQLKPRP | -0.0603
RRIRQRPPRLPRPRPRPDNYPRP | -0.194
RRIRRRPPRLPRPRPRPRAWPRP | -0.0407
RRIRFRPPRLPRPRPRPGFPPRP | 0.098
RRIRARPPRLPRPRPRPTGMPRP | 0.52
RRIRCRPPRLPRPRPRPSMLPRP | -0.727
RRIRCRPPRLPRPRPRPGQNPRP | 0.261
RRIRFRPPRLPRPRPRPYISPRP | -0.295
RRIRKRPPRLPRPRPRPIRMPRP | -0.0295
RRIRWRPPRLPRPRPRPTMRPRP | 0.925
RRIRDRPPRLPRPRPRPVGCPRP | 0.229
RRIRARPPRLPRPRPRPTAKPRP | 1.36
RRIRGRPPRLPRPRPRPSRCPRP | -0.0851
RRIRARPPRLPRPRPRPAYIPRP | -0.148
RRIRARPPRLPRPRPRPMKPPRP | 0.101

Sequence | shrunken log2 fold change
RRIRQRPPRLPRPRPRPAGSPRP | 0.0285
RRIRRRPPRLPRPRPRPWYKPRP | -0.371
RRIRYRPPRLPRPRPRPTYKPRP | -1.17
RRIRRRPPRLPRPRPRPVIWPRP | 0.185
RRIRGRPPRLPRPRPRPYDSPRP | 0.0118
RRIRNRPPRLPRPRPRPSRTPRP | 0.0867
RRIRHRPPRLPRPRPRPNGCPRP | -0.0302
RRIRQRPPRLPRPRPRPFAQPRP | -0.0906
RRIRARPPRLPRPRPRPHCYPRP | 0.101
RRIRDRPPRLPRPRPRPEATPRP | 1.98
RRIRHRPPRLPRPRPRPDIIPRP | -0.0233
RRIRVRPPRLPRPRPRPLYQPRP | -0.0431
RRIRERPPRLPRPRPRPNMYPRP | -0.976
RRIRKRPPRLPRPRPRPVGNPRP | 0.0255
RRIRRRPPRLPRPRPRPITRPRP | 0.0299
RRIRCRPPRLPRPRPRPHEMPRP | -0.0763
RRIRGRPPRLPRPRPRPFNPPRP | -0.439
RRIRYRPPRLPRPRPRPYEHPRP | -0.0505
RRIRVRPPRLPRPRPRPCCLPRP | -0.241
RRIRMRPPRLPRPRPRPRWMPRP | 0.315
RRIRCRPPRLPRPRPRPYGFPRP | -0.515
RRIRTRPPRLPRPRPRPGPPPRP | 0.404
RRIRFRPPRLPRPRPRPWKCPRP | 0.0039
RRIRVRPPRLPRPRPRPMGYPRP | -0.0568
RRIRWRPPRLPRPRPRPTRQPRP | 0.195

Sequence | shrunken log2 fold change
RRIRRRPPRLPRPRPRPKCQPRP | 0.506
RRIRKRPPRLPRPRPRPLWGPRP | 0.115
RRIRIRPPRLPRPRPRPCSNPRP | -0.11
RRIRIRPPRLPRPRPRPDRVPRP | -0.0924
RRIRGRPPRLPRPRPRPVHIPRP | -0.165
RRIRQRPPRLPRPRPRPSTPPRP | -0.311
RRIRERPPRLPRPRPRPAPRPRP | 0.734
RRIRYRPPRLPRPRPRPWDFPRP | -0.0206
RRIRSRPPRLPRPRPRPAKHPRP | -0.0685
RRIRFRPPRLPRPRPRPKYMPRP | -0.836
RRIRTRPPRLPRPRPRPKFMPRP | -0.0326
RRIRLRPPRLPRPRPRPMCIPRP | -0.125
RRIRIRPPRLPRPRPRPMTFPRP | -0.0432
RRIRGRPPRLPRPRPRPGPDPRP | 0.62
RRIRYRPPRLPRPRPRPSYMPRP | -1.41
RRIRMRPPRLPRPRPRPTTRPRP | 0.832
RRIRDRPPRLPRPRPRPMCPPRP | 0.00942
RRIRTRPPRLPRPRPRPKDYPRP | -0.115
RRIRFRPPRLPRPRPRPEDTPRP | 0.144
RRIRSRPPRLPRPRPRPFELPRP | 0.0413
RRIRDRPPRLPRPRPRPPLMPRP | 0.325
RRIRIRPPRLPRPRPRPPNVPRP | 0.0421
RRIRNRPPRLPRPRPRPMYMPRP | -0.05
RRIRERPPRLPRPRPRPPDIPRP | -0.225
RRIRFRPPRLPRPRPRPPEIPRP | -0.204

Sequence | shrunken log2 fold change
RRIRIRPPRLPRPRPRPNCTPRP | -0.663
RRIRFRPPRLPRPRPRPGNIPRP | -0.0525
RRIRDRPPRLPRPRPRPNAFPRP | -0.0726
RRIRSRPPRLPRPRPRPVHCPRP | -0.258
RRIRLRPPRLPRPRPRPMQWPRP | 0.0515
RRIRDRPPRLPRPRPRPAGVPRP | 0.25
RRIRSRPPRLPRPRPRPKENPRP | -0.0465
RRIRARPPRLPRPRPRPVNMPRP | -0.527
RRIRGRPPRLPRPRPRPEVSPRP | 0.372
RRIRGRPPRLPRPRPRPEVRPRP | 0.919
RRIRYRPPRLPRPRPRPDSAPRP | -0.378
RRIRKRPPRLPRPRPRPAQKPRP | -0.0358
RRIRCRPPRLPRPRPRPCWCPRP | -0.203
RRIRKRPPRLPRPRPRPLMCPRP | -0.122
RRIRHRPPRLPRPRPRPTHEPRP | 0.0424
RRIRQRPPRLPRPRPRPMQFPRP | 0.0624
RRIRQRPPRLPRPRPRPLVSPRP | 0.00785
RRIRVRPPRLPRPRPRPYWVPRP | -0.0928
RRIRLRPPRLPRPRPRPHEEPRP | 0.13
RRIRLRPPRLPRPRPRPWRKPRP | 0.125
RRIRIRPPRLPRPRPRPGAYPRP | -0.33
RRIRQRPPRLPRPRPRPFVAPRP | 0.0106
RRIRRRPPRLPRPRPRPTTAPRP | 0.541
RRIRCRPPRLPRPRPRPWSMPRP | -0.308
RRIRSRPPRLPRPRPRPFKVPRP | -0.0212

Sequence | shrunken log2 fold change
RRIRQRPPRLPRPRPRPGKSPRP | -0.103
RRIRFRPPRLPRPRPRPNMAPRP | -0.245
RRIRYRPPRLPRPRPRPMRHPRP | -0.0913
RRIRARPPRLPRPRPRPPKRPRP | 0.485
RRIRNRPPRLPRPRPRPDPEPRP | 0.211
RRIRHRPPRLPRPRPRPTLGPRP | -0.0595
RRIRLRPPRLPRPRPRPLCLPRP | -0.392
RRIRRRPPRLPRPRPRPLCCPRP | 0.293
RRIRSRPPRLPRPRPRPTGPPRP | -0.0769
RRIRIRPPRLPRPRPRPCGFPRP | -0.0835
RRIRFRPPRLPRPRPRPDKAPRP | -0.0262
RRIRWRPPRLPRPRPRPVTTPRP | -0.0727
RRIRLRPPRLPRPRPRPCYRPRP | -0.145
RRIRRRPPRLPRPRPRPTPTPRP | 1.14
RRIRRRPPRLPRPRPRPYVMPRP | -0.882
RRIRARPPRLPRPRPRPMCDPRP | 0.526
RRIRNRPPRLPRPRPRPLFLPRP | -0.547
RRIRWRPPRLPRPRPRPNWMPRP | -0.11
RRIRLRPPRLPRPRPRPAEDPRP | -0.00769
RRIRHRPPRLPRPRPRPDRHPRP | -0.159
RRIRLRPPRLPRPRPRPFFLPRP | -0.282
RRIRPRPPRLPRPRPRPRWWPRP | 0.0553
RRIRKRPPRLPRPRPRPCTHPRP | -0.14
RRIRQRPPRLPRPRPRPVWEPRP | 0.0571
RRIRSRPPRLPRPRPRPQIRPRP | 0.267
